Measured values: patent US20250092426, “CAS ENDONUCLEASES AND RELATED METHODS” (Flagship Pioneering Innovations VII, LLC, published 2025)

Biological target: T1, CasEnd-22 (synthetic construct)
T1 chain: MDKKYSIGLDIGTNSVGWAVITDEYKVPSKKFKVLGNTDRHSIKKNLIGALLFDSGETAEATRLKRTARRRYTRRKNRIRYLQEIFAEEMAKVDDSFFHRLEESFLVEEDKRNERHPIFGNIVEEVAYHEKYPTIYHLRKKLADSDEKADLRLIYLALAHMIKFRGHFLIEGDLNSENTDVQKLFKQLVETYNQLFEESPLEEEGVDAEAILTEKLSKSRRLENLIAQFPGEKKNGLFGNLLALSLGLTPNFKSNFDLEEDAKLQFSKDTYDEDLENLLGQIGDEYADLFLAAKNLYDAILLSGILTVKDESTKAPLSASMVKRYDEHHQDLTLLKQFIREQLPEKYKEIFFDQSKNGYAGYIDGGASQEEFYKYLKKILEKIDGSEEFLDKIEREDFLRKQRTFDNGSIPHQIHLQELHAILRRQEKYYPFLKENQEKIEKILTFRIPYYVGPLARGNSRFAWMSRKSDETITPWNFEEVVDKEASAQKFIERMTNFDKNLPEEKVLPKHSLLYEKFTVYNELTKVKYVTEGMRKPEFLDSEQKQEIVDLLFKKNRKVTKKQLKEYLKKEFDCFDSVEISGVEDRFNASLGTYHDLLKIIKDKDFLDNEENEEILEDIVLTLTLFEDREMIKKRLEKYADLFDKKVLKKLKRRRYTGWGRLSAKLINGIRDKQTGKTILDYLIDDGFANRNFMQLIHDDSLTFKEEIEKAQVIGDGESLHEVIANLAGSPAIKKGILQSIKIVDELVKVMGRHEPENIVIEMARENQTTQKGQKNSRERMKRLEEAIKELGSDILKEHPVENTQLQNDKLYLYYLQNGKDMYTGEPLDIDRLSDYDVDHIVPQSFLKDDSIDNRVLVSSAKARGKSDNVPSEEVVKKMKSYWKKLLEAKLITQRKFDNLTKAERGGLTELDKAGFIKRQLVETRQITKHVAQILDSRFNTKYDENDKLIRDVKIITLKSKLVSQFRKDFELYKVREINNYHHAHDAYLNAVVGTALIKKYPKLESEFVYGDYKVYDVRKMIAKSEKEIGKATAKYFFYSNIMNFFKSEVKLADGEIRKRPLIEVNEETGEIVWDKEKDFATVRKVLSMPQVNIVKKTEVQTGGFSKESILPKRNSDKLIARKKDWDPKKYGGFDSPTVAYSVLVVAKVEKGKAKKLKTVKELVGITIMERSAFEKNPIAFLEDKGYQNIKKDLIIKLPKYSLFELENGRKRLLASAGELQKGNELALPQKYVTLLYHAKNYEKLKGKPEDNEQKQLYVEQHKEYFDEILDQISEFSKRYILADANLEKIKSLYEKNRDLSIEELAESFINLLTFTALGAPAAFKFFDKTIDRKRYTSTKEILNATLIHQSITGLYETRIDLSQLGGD
Assay: cell_activity; +++; HEK293T; PAM not stated
Method: The ability of the candidate endonucleases, including endonucleases 1-38 (CasEnds 1-38) (set forth in Table 1 and SEQ ID NOS: 1-38, respectively), to mediate target nucleic acid editing was assessed utilizing a blue fluorescent protein (BFP) to green fluorescent protein (GFP) conversion assay, wherein programmed nucleotide editing of the BFP gene was measured by the expression of GFP (signifying the conversion of […] via the programmed nucleotide edit in the BFP gene). The conversion assay was conducted utilizing the reverse transcriptase-based system (as described above in Example 2) comprising a template RNA (designed to convert BFP to GFP) and a fusion protein comprising a retroviral reverse transcriptase and the individual subject Cas endonuclease. The amino acid sequence of the base portion of the fusion protein (without the individual subject Cas endonuclease) is set forth in Table 7 (SEQ ID NO: 43).
Briefly, 200 ng of plasmid DNA encoding the subject fusion protein (containing one of the subject CasEnds) and 200 ng of template RNA (in plasmid format) were added to 25 μL SF buffer containing 250,000 HEK293T BFP-expressing cells. Nucleofection was mediated utilizing program DS-150. The day of nucleofection was marked as day 0. At day 4, the cells were harvested and analyzed by flow cytometry to assess the level of BFP and GFP expression in HEK293T cells. Cells having GFP signal were defined as having undergone a successful editing event, and the percent of cells that were GFP+ on day 4 was used to determine the performance of each Cas endonuclease.

B1: BFP-to-GFP template RNA ; BFP reporter protospacer (ssRNA ; dsDNA)
RNA: GCCGAAGCACUGCACGCCGUGUUUUAGAGCUAGAAAUAGCAAGUUAAAAUAAGGCUAGUCCGUUAUCAACUUGAAAAAGUGGCACCGAGUCGGUGCACCCUGACGUACGGCGUGCAGUGCUU
DNA 1: GCCGAAGCACTGCACGCCGT
DNA 2: ACGGCGTGCAGTGCTTCGGC
  activity: ≥ 100 % of reference
